Kd, koff and kon data for 3 molecules are collected here from patent US20240376205A1 (Hoffmann-La Roche, published 2024).

Assay [1] concerns the target T1, OneArmed-huPD-L1_ECD_Fc_LALAPG (P1AF6937) (human, UniProt Q9NZQ7 18-238).
T1 construct: range 18-238; also called huPD-L1-Fc; huPD-L1(ECD)-huFc
The assay is described as follows: SPR, Fab fragment, as in Example 2 a). In general terms: Surface plasmon resonance follows binding to a sensor surface in real time, without labels.

Assay [2] addresses T2, OneArmed-cyPD-L1_ECD_Fc_LALAPG_avi_his (P1AF6938) (cynomolgus).
T2 construct: also called cynomolgus PD-L1-Fc; cynoPD-L1 (ECD)-huFc
Kind of assay: SPR, Fab fragment, as in Example 2 a).

In assay [3] the target is T1, OneArmed-huPD-L1_ECD_Fc_LALAPG …. Kind of assay: SPR, Dutaflip Fab fragment without IFN-α2 fusion, analyte P1AF6937.

In general, Kd refers to a measure of binding affinity in units of concentration. Higher therefore signals a looser complex. A word on the koff: it is the first-order rate constant of dissociation. A lower koff goes with slow dissociation. One may read the kon as a measure of how fast the partners come together. A lower kon goes with slow association.

B1: anti-huPD-L1 M14 Fab (P1AI3438) (Fab, V domains shown)
VH: MTQLVESGGGLVQPGGSLRLSCAADHTTEYNAMSWVRQAPGKGLEWVSAISGSGGSTYYADSVKGRFTISRDNSKNTLYLQMNSLRAEDTAVYYCARDLGFMDVWGQGTLVTVSS
VL: DIQMTQSPSSLSASVGDRVTITCRASQSISSYLNWYQQKPGKAPKLLIYDASYHEFGVPSRFSGSGSGTDFTLTISSLQPEDFATYYCQQSYSTPWTFGQGTKVEIK
notes: Tested as Fab fragment
Consider B1, for which, in assay [1], binding was put at a Kd of 0.6 nM, the koff is 0.00012 s⁻¹ and the kon turned out to be 200000 M⁻¹ s⁻¹. In assay [2], this molecule yielded a Kd of 0.9 nM, a koff of 0.00015 s⁻¹ and a kon of 160000 M⁻¹ s⁻¹.

B2: Dutaflip Fab fragment of P1AH1108 (Fab, V domains shown)
VH: MSQLVESGGGLVQPGGSLRLSCAANNDIEFNAMSWVRQAPGKGLEWVGSISPKGGSKSIHRKFQGRFTISRDNSKNTLYLQMNSLRAEDTAVYYCARDLGFMDIWGQGTLVTVSS
VL: KTQMTQSPSSLSASVGDRVTITCDGTYGISNELAWYQQKPGKAPKLLIYDGEYHDFDVPSRFSGSGSGSDFTLTISSLQPEDFATYYCQQYGNWPHTFGQGTKVEIK
notes: Dutaflip Fab fragment without IFN-α2 fusion, expressed in E. coli
The molecule B2 displayed a Kd in assay [3] of 6 nM.

B3: Dutaflip Fab fragment of P1AH1111 (DutaFab E06P07) (Fab, V domains shown)
VH: ARQLVESGGGLVQPGGSLRLSCAASGFHFEEQAMSWVRQAPGKGLEWVGSISPKGGSKSLNRNFNGRFTISRDNSKNTLYLQMNSLRAEDTAVYYCAKDIGFMDGWGQGTLVTVSS
VL: YQMTQSPSSLSASVGDRVTITCHGHVFISNYLAWYQQKPGKAPKLLIYDGEWRDFGVPSRFSGSGSDDSFTLTISSLQPEDFATYYCQQYSNWPHTFGQGTKVEIK
notes: Fab fragment without IFN-α2 fusion, expressed in E. coli
In assay [3], B3 had a Kd of 37 nM.
